Assay results from US7393670B2, “Tyrosyl-tRNA synthetase variants” (Japan Science and Technology Agency, priority 2001, dated 2008).

Legend:
Assay type in all cases: biochemical
[1] = Aminoacylation reaction, simplified Lloyd's method, inorganic phosphate detected with Biomol green; design: key: ***: the reaction could be detected strongly at 25 nM; **: strongly at 250 nM; *: weakly at 250 nM; the activity is high in the order of *** > ** > * > —; settings: Table 3; tyrosine 200 μM; 37° C. for 4 min
Description: In the first method, Lloyd's method (Nucleic Acids Research, 23:2886-2892, 1995) where inorganic phosphate produced by pyrophosphatase-drived hydrolysis of pyrophosphate which was one of the reaction products of the aminoacylation reactions was quantified was simplified, and the inorganic phosphate was detected using Biomol green (Funakoshi) to carry out the measurement of the aminoacylation reaction.
Amino acid concentrations were 200 μM and 1 mM for tyrosine and 3-iodotyrosine, respectively.
The method where the aminoacylation reaction is measured by quantifying inorganic phosphate produced by pyrophosphatase-drived hydrolysis of pyrophosphate which is one of reaction products of the aminoacylation has been described by Lloyd et al. (Nucleic Acids Research, 23:2886-2892, 1995). In one method of the invention, this method was simplified and the aminoacylation reaction was measured by the detection of inorganic phosphate using Biomol green (Funakoshi). […] To stop the reaction, 0.1 ml of Bio mol green was added. Absorbance of its supernatant was measured at 630 nm.

[2] = Aminoacylation activity by Lloyd's method (release of pyrophosphates)
Description: In the second method, Lloyd's method (Nucleic Acids Research, 23:2886-2892, 1995) was carried out without alteration.
In the second method, the activity was assayed by Lloyd's method (Nucleic Acids Research, 23:2886-2892, 1995). Each enzyme obtained was incubated with 0.4 ml of the buffer B containing 1 mM ATP (Seikagaku Corporation), 100 μM purified crude tyrosyl-tRNA, 200 μM tyrosine or 3-iodotyrosine at 37° C. for 6 min. The aminoacylation activity was represented as concentrations of released phosphate per min.

[3] = system: tyrosine or 3-iodotyrosine for the full-length tRNA; assay: Aminoacylation of full-length tRNA by acidic polyacrylamide gel electrophoresis (Wolfson); settings: acidic PAGE; 200 μM amino acid, enzyme 50 nM, 37° C. for 3 min
Description: In the third method, levels of aminoacylation activity in the presence of tyrosine or 3-iodotyrosine for the full-length tRNA were assayed by the same method as. acidic polyacrylamide gel electrophoresis described by Wolfson et al. (Wolfson, A. D. et al., RNA, 4:1019-1023, 1998). The result is shown in FIG. 1 as a photo, substitute for a drawing.
In the third method, the aminoacylation activity for tyrosine or 3-iodotyrosine for tRNA in full length was assayed by the same method as acidic polyacrylamide electrophoresis by the method of Wolfson et al. (Wolfson, A. D. et al., RNA, 4:1019-1023, 1998). Tyrosine or iodotyrosine at 200 μM and the enzyme at 50 nM were incubated at 37° C. for 3 min, and subsequently the electrophoresis was carried out. The result of the aminoacylation activity of the enzymes with double mutations are shown on the photo, substitute for a drawing, in FIG. 1. In FIG. 1, left three lanes are from the wild-type enzyme, middle three lanes are from the enzyme modified at position 37 with valine (37V) and right three lanes are from the enzyme modified at positions 37 and 195 with valine and cysteine (VC), respectively. Three lanes in each group show the case without the addition of the amino acid (w/o aa), the case with the addition of 3-iodotyrosine (200 μM) (1-Tyr), and the case with the addition of tyrosine (200 μM) (Tyr), respectively from the left.

[4] = system: wheat germ cell-free translation system; assay: LC-MS analysis of K3 fragment of Ras translation products; settings: absorbance of chromatogram
Description: It was examined by mass spectrometry that iodotyrosine was actually inserted at the position corresponding to the amber codon of the peptide chain. Ras protein purified using nickel beads was applied on SDS-PAGE. A band corresponding to a mobility of Ras among stained product bands was cut out and treated with peptidase. A resultant fragment was analyzed by LC-MS (liquid chromatography—mass spectrometry). The 32nd codon of Ras protein used as a reporter protein is the codon for tyrosine. […] Among the fragments obtained by digesting the translation products, the fragment including the 32nd amino acid from N-terminus (Ser 17 to Lys 42, referred to as K3 fragment) was focused and analyzed. […] No K3 fragment was detected where the other amino acid was accidentally inserted at the site corresponding to the amber codon. The ratio of iodotyrosine to tyrosine inserted to the amber codon was examined by absorbance of chromatogram. […] On the other hand, no fragment having the mass corresponding to the case encompassing iodotyrosine in place of tyrosine was detected in the analysis of the translation products from mRNA which contained no amber codon. […]
It was examined by mass spectrometric analysis that iodotyrosine was actually inserted at the position corresponding to the amber codon of the peptide chain. […] Elutes were analyzed by Finnigan LCQ ion trap mass spectrometer using ESI probe. […]

B1: VC: E. coli TyrRS double variant: position 37 Valine, position 195 Cysteine (protein, UniProt P0AGJ9 2-424, looked up, variant Y37V Q195C)
Tyrosine--tRNA ligase: ASSNLIKQLQERGLVAQVTDEEALAERLAQGPIALVCGFDPTADSLHLGHLVPLLCLKRFQQAGHKPVALVGGATGLIGDPSFKAAERKLNTEETVQEWVDKIRKQVAPFLDFDCGENSAIAANNYDWFGNMNVLTFLRDIGKHFSVNQMINKEAVKQRLNREDQGISFTEFSYNLLQGYDFACLNKQYGVVLCIGGSDQWGNITSGIDLTRRLHQNQVFGLTVPLITKADGTKFGKTEGGAVWLDPKKTSPYKFYQFWINTADADVYRFLKFFTFMSIEEINALEEEDKNSGKAPRAQYVLAEQVTRLVHGEEGLQAAKRITECLFSGSLSALSEADFEQLAQDGVPMVEMEKGADLMQALVDSELQPSRGQARKTIASNAITINGEKQSDPEYFFKEEDRLFGRFTLLRRGKKNYCLICWK
Aminoacylation activity, Tyrosine [1]: * | relative tyrosine analogue to tyrosine ratio ([2]; 3-iodotyrosine versus tyrosine, from Table 4): more than 10 | Initial velocity of release of pyrophosphates, 3-iodotyrosine ([2]; at 37° C., 200 μM 3-iodotyrosine): 9.5 nM PPi/min/nM enzyme | Initial velocity of release of pyrophosphates, Tyrosine ([2]; at 37° C., 200 μM tyrosine): 0.9 nM PPi/min/nM enzyme | specificity for the tyrosine analogue (attachment of amino acid to tRNA) [3]: high specificity for the tyrosine analogue | K3 fragments encompassing iodotyrosine by the amber suppression [4]: ≥ 95% | ratio of tyrosine insertion at the amber codon [4]: ≤ 5%
